Molecular target: Ago2 PAZ domain (human, UniProt Q9UKV8 227-371)
Assay: ITC

Ago2 PAZ domain, sequence (Q9UKV8 227-371): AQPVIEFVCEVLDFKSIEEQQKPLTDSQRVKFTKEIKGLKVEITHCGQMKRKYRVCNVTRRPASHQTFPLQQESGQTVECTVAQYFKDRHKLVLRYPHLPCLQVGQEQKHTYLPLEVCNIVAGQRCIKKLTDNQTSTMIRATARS

AGAGUCACGCUUU (ssRNA) [native RNA]
Kd: 600 nM
